The values below come from patent US20030049246A1.

Experiment [1] deals with SHH (chick, endogenous in cerebellar cortical explants) (chick) (UniProt Q91035). Briefly: cell-based or functional assay.
Experiment [2] concerns the target SHH (mouse, endogenous in purified granule neuron precursor aggregates) (mouse) (UniProt Q62226). The experiment in a line: cell-based or functional assay.

Sequence of SHH (chick, endogenous in cerebellar cortical explants) (chick) (Q91035 27-200 limits assumed): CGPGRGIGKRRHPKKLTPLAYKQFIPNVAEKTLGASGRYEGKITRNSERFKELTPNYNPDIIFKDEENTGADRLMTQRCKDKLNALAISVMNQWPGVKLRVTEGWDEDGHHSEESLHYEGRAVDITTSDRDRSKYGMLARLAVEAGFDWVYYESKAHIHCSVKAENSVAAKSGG
Sequence of SHH (mouse, endogenous in purified granule neuron precursor aggregates) (mouse) (Q62226 25-198 limits assumed): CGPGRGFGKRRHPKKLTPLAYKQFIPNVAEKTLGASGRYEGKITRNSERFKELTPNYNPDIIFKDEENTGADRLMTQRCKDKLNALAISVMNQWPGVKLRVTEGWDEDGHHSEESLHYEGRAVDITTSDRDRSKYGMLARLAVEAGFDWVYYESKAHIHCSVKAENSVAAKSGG

Substance “blocking anti-SHH monoclonal antibody 5E1” returned a fold decrease in BrdU incorporation inside D10 chick cerebellar explants (96 h) in experiment [1] of 3 to 4 fold. The fold decrease in proliferation of purified mouse granule neuron aggregates in experiment [2] lay within 3 to 4 fold.
